# Reference: US8445431
# System: T1, [KGHK-Cu]+ copper(II) complex of KGHK
# T1 sequence: KGHK
substance,measurement,value
recombinant isoform of human Angiotensin Converting Enzyme (rhACE) corresponding to the ectodomain somatic ACE,"catalytic rate constant kobs for enzyme deactivation under oxidative conditions (ascorbate, dioxygen)",kobs˜2.86×10^-2 min^-1 for enzyme deactivation
